8 proteins from patent US20210277068A1 (SHANXI KANGBAO BIOLOGICAL PRODUCT, published 2021) can be followed below.

* marks the point of attachment. Stearoyl = CCCCCCCCCCCCCCCCCC(=O)*; Palmitoyl = CCCCCCCCCCCCCCCC(=O)*; Lauroyl = CCCCCCCCCCCC(=O)*; Octanoyl = CCCCCCCC(=O)*

This data set deals with T1, N39 (HIV-1, N-terminal acetyl (Ac-); C-terminal amide (-NH2)).
T1 peptide: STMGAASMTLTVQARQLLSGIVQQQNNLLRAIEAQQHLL
The data set is described as follows: circular dichroism temperature scan at 220 nm of the 1:1 mixture with N39, 10 µM each in PBS pH 7.2.

B1: LP-64 (peptide)
peptide: Ac-KIEELLKKAEEQQKKNEEELKKLEK(Palmitoyl)-NH2
SMILES: CCCCCCCCCCCCCCCC(=O)NCCCC[C@H](NC(=O)[C@H](CCC(=O)O)NC(=O)[C@H](CC(C)C)NC(=O)[C@H](CCCCN)NC(=O)[C@H](CCCCN)NC(=O)[C@H](CC(C)C)NC(=O)[C@H](CCC(=O)O)NC(=O)[C@H](CCC(=O)O)NC(=O)[C@H](CCC(=O)O)NC(=O)[C@H](CC(N)=O)NC(=O)[C@H](CCCCN)NC(=O)[C@H](CCCCN)NC(=O)[C@H](CCC(N)=O)NC(=O)[C@H](CCC(N)=O)NC(=O)[C@H](CCC(=O)O)NC(=O)[C@H](CCC(=O)O)NC(=O)[C@H](C)NC(=O)[C@H](CCCCN)NC(=O)[C@H](CCCCN)NC(=O)[C@H](CC(C)C)NC(=O)[C@H](CC(C)C)NC(=O)[C@H](CCC(=O)O)NC(=O)[C@H](CCC(=O)O)NC(=O)[C@@H](NC(=O)[C@H](CCCCN)NC(C)=O)[C@@H](C)CC)C(N)=O
notes: N-terminally truncated, based on LP-52
Turning to B1, the “Tm value of the complex” value was greater than 70 °C.

B2: LP-63 (peptide)
peptide: Ac-QKIEELLKKAEEQQKKNEEELKKLEK(Palmitoyl)-NH2
SMILES: CCCCCCCCCCCCCCCC(=O)NCCCC[C@H](NC(=O)[C@H](CCC(=O)O)NC(=O)[C@H](CC(C)C)NC(=O)[C@H](CCCCN)NC(=O)[C@H](CCCCN)NC(=O)[C@H](CC(C)C)NC(=O)[C@H](CCC(=O)O)NC(=O)[C@H](CCC(=O)O)NC(=O)[C@H](CCC(=O)O)NC(=O)[C@H](CC(N)=O)NC(=O)[C@H](CCCCN)NC(=O)[C@H](CCCCN)NC(=O)[C@H](CCC(N)=O)NC(=O)[C@H](CCC(N)=O)NC(=O)[C@H](CCC(=O)O)NC(=O)[C@H](CCC(=O)O)NC(=O)[C@H](C)NC(=O)[C@H](CCCCN)NC(=O)[C@H](CCCCN)NC(=O)[C@H](CC(C)C)NC(=O)[C@H](CC(C)C)NC(=O)[C@H](CCC(=O)O)NC(=O)[C@H](CCC(=O)O)NC(=O)[C@@H](NC(=O)[C@H](CCCCN)NC(=O)[C@H](CCC(N)=O)NC(C)=O)[C@@H](C)CC)C(N)=O
notes: N-terminally truncated, based on LP-52; also called P63 with C16
As to B2, the “Tm value of the complex” value was greater than 70 °C.

Consider Ac-WEQKIEELLKKAEEQQKKNEEELKKLEK(Octanoyl)-NH2 [LP-82], for which the “Tm value of the complex” value was found to be 65.1 °C.

B3: LP-62 (peptide)
peptide: Ac-EQKIEELLKKAEEQQKKNEEELKKLEK(Palmitoyl)-NH2
SMILES: CCCCCCCCCCCCCCCC(=O)NCCCC[C@H](NC(=O)[C@H](CCC(=O)O)NC(=O)[C@H](CC(C)C)NC(=O)[C@H](CCCCN)NC(=O)[C@H](CCCCN)NC(=O)[C@H](CC(C)C)NC(=O)[C@H](CCC(=O)O)NC(=O)[C@H](CCC(=O)O)NC(=O)[C@H](CCC(=O)O)NC(=O)[C@H](CC(N)=O)NC(=O)[C@H](CCCCN)NC(=O)[C@H](CCCCN)NC(=O)[C@H](CCC(N)=O)NC(=O)[C@H](CCC(N)=O)NC(=O)[C@H](CCC(=O)O)NC(=O)[C@H](CCC(=O)O)NC(=O)[C@H](C)NC(=O)[C@H](CCCCN)NC(=O)[C@H](CCCCN)NC(=O)[C@H](CC(C)C)NC(=O)[C@H](CC(C)C)NC(=O)[C@H](CCC(=O)O)NC(=O)[C@H](CCC(=O)O)NC(=O)[C@@H](NC(=O)[C@H](CCCCN)NC(=O)[C@H](CCC(N)=O)NC(=O)[C@H](CCC(=O)O)NC(C)=O)[C@@H](C)CC)C(N)=O
notes: as for B1
On to B3, for which the “Tm value of the complex” value is greater than 70 °C.

B4: LP-88 (peptide)
peptide: Ac-EQKIEELLKKAEEQQKKNEEELKKLEK(Stearoyl)-NH2
SMILES: CCCCCCCCCCCCCCCCCC(=O)NCCCC[C@H](NC(=O)[C@H](CCC(=O)O)NC(=O)[C@H](CC(C)C)NC(=O)[C@H](CCCCN)NC(=O)[C@H](CCCCN)NC(=O)[C@H](CC(C)C)NC(=O)[C@H](CCC(=O)O)NC(=O)[C@H](CCC(=O)O)NC(=O)[C@H](CCC(=O)O)NC(=O)[C@H](CC(N)=O)NC(=O)[C@H](CCCCN)NC(=O)[C@H](CCCCN)NC(=O)[C@H](CCC(N)=O)NC(=O)[C@H](CCC(N)=O)NC(=O)[C@H](CCC(=O)O)NC(=O)[C@H](CCC(=O)O)NC(=O)[C@H](C)NC(=O)[C@H](CCCCN)NC(=O)[C@H](CCCCN)NC(=O)[C@H](CC(C)C)NC(=O)[C@H](CC(C)C)NC(=O)[C@H](CCC(=O)O)NC(=O)[C@H](CCC(=O)O)NC(=O)[C@@H](NC(=O)[C@H](CCCCN)NC(=O)[C@H](CCC(N)=O)NC(=O)[C@H](CCC(=O)O)NC(C)=O)[C@@H](C)CC)C(N)=O
On to B4, for which the “Tm value of the complex” value amounted to 76.5 °C.

B5: LP-55 (peptide)
peptide: Ac-WEQKIEELLKKAEEQQKKNEEELKK(Palmitoyl)-NH2
SMILES: CCCCCCCCCCCCCCCC(=O)NCCCC[C@H](NC(=O)[C@H](CCCCN)NC(=O)[C@H](CC(C)C)NC(=O)[C@H](CCC(=O)O)NC(=O)[C@H](CCC(=O)O)NC(=O)[C@H](CCC(=O)O)NC(=O)[C@H](CC(N)=O)NC(=O)[C@H](CCCCN)NC(=O)[C@H](CCCCN)NC(=O)[C@H](CCC(N)=O)NC(=O)[C@H](CCC(N)=O)NC(=O)[C@H](CCC(=O)O)NC(=O)[C@H](CCC(=O)O)NC(=O)[C@H](C)NC(=O)[C@H](CCCCN)NC(=O)[C@H](CCCCN)NC(=O)[C@H](CC(C)C)NC(=O)[C@H](CC(C)C)NC(=O)[C@H](CCC(=O)O)NC(=O)[C@H](CCC(=O)O)NC(=O)[C@@H](NC(=O)[C@H](CCCCN)NC(=O)[C@H](CCC(N)=O)NC(=O)[C@H](CCC(=O)O)NC(=O)[C@H](Cc1c[nH]c2ccccc12)NC(C)=O)[C@@H](C)CC)C(N)=O
notes: LP-52 without the C-terminal LEK
For the protein B5, the “Tm value of the complex” value stood at 63.1 °C.

B6: LP-51 (peptide)
peptide: Ac-LEANIEELLKKAEEQQKKNEEELKKLEK(Palmitoyl)-NH2
SMILES: CCCCCCCCCCCCCCCC(=O)NCCCC[C@H](NC(=O)[C@H](CCC(=O)O)NC(=O)[C@H](CC(C)C)NC(=O)[C@H](CCCCN)NC(=O)[C@H](CCCCN)NC(=O)[C@H](CC(C)C)NC(=O)[C@H](CCC(=O)O)NC(=O)[C@H](CCC(=O)O)NC(=O)[C@H](CCC(=O)O)NC(=O)[C@H](CC(N)=O)NC(=O)[C@H](CCCCN)NC(=O)[C@H](CCCCN)NC(=O)[C@H](CCC(N)=O)NC(=O)[C@H](CCC(N)=O)NC(=O)[C@H](CCC(=O)O)NC(=O)[C@H](CCC(=O)O)NC(=O)[C@H](C)NC(=O)[C@H](CCCCN)NC(=O)[C@H](CCCCN)NC(=O)[C@H](CC(C)C)NC(=O)[C@H](CC(C)C)NC(=O)[C@H](CCC(=O)O)NC(=O)[C@H](CCC(=O)O)NC(=O)[C@@H](NC(=O)[C@H](CC(N)=O)NC(=O)[C@H](C)NC(=O)[C@H](CCC(=O)O)NC(=O)[C@H](CC(C)C)NC(C)=O)[C@@H](C)CC)C(N)=O
Regarding B6, the “Tm value of the complex” value amounted to 72 °C.

In the case of Ac-WEQKIEELLKKAEEQQKKNEEELKKLEK(Lauroyl)-NH2 [LP-81], the “Tm value of the complex” value was determined as 74.1 °C.
